# Experimental data reported in paper PMC9482650, “Quantitative fragmentomics allow affinity mapping of interactomes” (Nature Communications, 2022).
# T1: SYNJ2BP, P57105
# T1 sequence (P57105 8-110, limits assumed, looked up): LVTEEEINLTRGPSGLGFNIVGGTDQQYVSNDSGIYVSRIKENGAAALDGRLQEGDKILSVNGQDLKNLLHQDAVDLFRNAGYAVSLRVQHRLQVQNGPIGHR
# T2: APBA2_1, Q99767
# T2 sequence (Q99767 563-664, limits assumed, looked up): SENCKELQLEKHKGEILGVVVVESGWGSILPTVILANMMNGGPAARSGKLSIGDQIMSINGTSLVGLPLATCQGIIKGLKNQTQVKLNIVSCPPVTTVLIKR
# T3: PDZD7_3, Q9H5P4
# T3 sequence (Q9H5P4 857-944, limits assumed, looked up): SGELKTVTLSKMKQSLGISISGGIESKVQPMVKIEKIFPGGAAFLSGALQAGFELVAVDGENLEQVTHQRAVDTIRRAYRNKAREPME
# T4: ARHGAP21, Q5T5U3
# T4 sequence (Q5T5U3 45-169, limits assumed, looked up): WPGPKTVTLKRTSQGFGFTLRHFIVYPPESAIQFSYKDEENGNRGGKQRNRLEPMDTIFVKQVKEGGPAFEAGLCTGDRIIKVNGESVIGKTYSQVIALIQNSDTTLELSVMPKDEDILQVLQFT
# T5: DVL3, Q92997
# T5 sequence (Q92997 244-331, limits assumed, looked up): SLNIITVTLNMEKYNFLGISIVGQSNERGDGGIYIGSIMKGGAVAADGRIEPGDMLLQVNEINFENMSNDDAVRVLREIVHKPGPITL
# T6: GRIP1_5, Q9Y3R0
# T6 sequence (Q9Y3R0 568-668, limits assumed, looked up): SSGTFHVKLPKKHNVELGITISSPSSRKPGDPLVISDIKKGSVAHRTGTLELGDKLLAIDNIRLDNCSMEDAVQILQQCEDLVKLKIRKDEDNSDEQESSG
# T7: DLG3_1, Q92796
# T7 sequence (Q92796 125-227, limits assumed, looked up): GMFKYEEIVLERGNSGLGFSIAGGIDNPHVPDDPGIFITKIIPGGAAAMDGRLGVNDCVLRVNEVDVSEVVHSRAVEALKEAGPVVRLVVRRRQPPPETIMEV
# T8: FRMPD1, Q5SYB0
# T8 sequence (Q5SYB0 52-145, limits assumed, looked up): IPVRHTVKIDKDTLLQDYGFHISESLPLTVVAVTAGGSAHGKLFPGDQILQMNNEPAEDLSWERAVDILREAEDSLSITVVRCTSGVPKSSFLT
# T9: DLG3_2, Q92796
# T9 sequence (Q92796 221-321, limits assumed, looked up): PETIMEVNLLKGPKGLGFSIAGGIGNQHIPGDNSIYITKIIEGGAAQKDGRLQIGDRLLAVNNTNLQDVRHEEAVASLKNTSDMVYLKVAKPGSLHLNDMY
# T10: TJP3_3, O95049
# T10 sequence (O95049 375-456, limits assumed, looked up): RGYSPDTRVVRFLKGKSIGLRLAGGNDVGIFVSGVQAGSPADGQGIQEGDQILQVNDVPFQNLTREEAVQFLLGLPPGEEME
# T11: SNTB1, Q13884
# T11 sequence (Q13884 107-205, limits assumed, looked up): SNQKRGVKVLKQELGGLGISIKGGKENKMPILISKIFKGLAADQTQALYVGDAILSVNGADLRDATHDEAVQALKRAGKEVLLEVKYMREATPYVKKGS
# T12: SHANK1, Q9Y566
# T12 sequence (Q9Y566 658-767, limits assumed, looked up): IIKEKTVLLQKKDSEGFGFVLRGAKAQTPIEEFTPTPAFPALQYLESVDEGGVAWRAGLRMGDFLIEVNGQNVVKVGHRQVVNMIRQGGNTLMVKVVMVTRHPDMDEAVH
# T13: APBA3_1, O96018
# T13 sequence (O96018 389-490, limits assumed, looked up): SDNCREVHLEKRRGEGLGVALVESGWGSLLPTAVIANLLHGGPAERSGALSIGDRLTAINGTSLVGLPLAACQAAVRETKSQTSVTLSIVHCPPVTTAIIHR
# Target: T1, SYNJ2BP, P57105
# Assay: holdup assay
# Parameters: key: below the threshold = too weak to quantify, mostly under pKd 3.1 to 4
# Conditions: plain residues with an end cap or a label only (N-terminal biotin on a linker: ado-ado)
row,pKd,Binder
1,4.24,"ADEMICITTL [CACNA1D, Q01668]"
2,3.75,"NISARRFTLC [FAM167B, Q9BTA0]"

# Target: T2, APBA2_1, Q99767
# Assay: holdup assay
# Parameters: key: below the threshold = too weak to quantify, mostly under pKd 3.1 to 4
# Conditions: plain residues with an end cap or a label only (N-terminal biotin on a linker: ado-ado)
row,pKd,Binder
1,below the threshold,"ADEMICITTL [CACNA1D, Q01668]"
2,below the threshold,"NISARRFTLC [FAM167B, Q9BTA0]"

# Target: GRID2IP_2, A4D2P6
# Assay: holdup assay
# Parameters: key: below the threshold = too weak to quantify, mostly under pKd 3.1 to 4
# Conditions: plain residues with an end cap or a label only (N-terminal biotin on a linker: ado-ado)
# Chain of GRID2IP_2, A4D2P6 (A4D2P6 272-370): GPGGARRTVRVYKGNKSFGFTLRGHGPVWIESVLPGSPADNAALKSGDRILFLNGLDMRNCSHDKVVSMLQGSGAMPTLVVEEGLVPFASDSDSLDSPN
row,pKd,Binder
1,4.94,"ADEMICITTL [CACNA1D, Q01668]"
2,4.21,"NISARRFTLC [FAM167B, Q9BTA0]"

# Target: T3, PDZD7_3, Q9H5P4
# Assay: holdup assay
# Parameters: key: below the threshold = too weak to quantify, mostly under pKd 3.1 to 4
# Conditions: plain residues with an end cap or a label only (N-terminal biotin on a linker: ado-ado)
row,pKd,Binder
1,5.57,"ADEMICITTL [CACNA1D, Q01668]"
2,3.88,"NISARRFTLC [FAM167B, Q9BTA0]"

# Target: T4, ARHGAP21, Q5T5U3
# Assay: holdup assay
# Parameters: key: below the threshold = too weak to quantify, mostly under pKd 3.1 to 4
# Conditions: plain residues with an end cap or a label only (N-terminal biotin on a linker: ado-ado)
row,pKd,Binder
1,3.67,"ADEMICITTL [CACNA1D, Q01668]"
2,below the threshold,"NISARRFTLC [FAM167B, Q9BTA0]"

# Target: T5, DVL3, Q92997
# Assay: holdup assay
# Parameters: key: below the threshold = too weak to quantify, mostly under pKd 3.1 to 4
# Conditions: plain residues with an end cap or a label only (N-terminal biotin on a linker: ado-ado)
row,pKd,Binder
1,below the threshold,"ADEMICITTL [CACNA1D, Q01668]"
2,below the threshold,"NISARRFTLC [FAM167B, Q9BTA0]"

# Target: PDLIM1, O00151
# Assay: holdup assay
# Parameters: key: below the threshold = too weak to quantify, mostly under pKd 3.1 to 4
# Conditions: plain residues with an end cap or a label only (N-terminal biotin on a linker: ado-ado)
# Chain of PDLIM1, O00151 (O00151 1-87): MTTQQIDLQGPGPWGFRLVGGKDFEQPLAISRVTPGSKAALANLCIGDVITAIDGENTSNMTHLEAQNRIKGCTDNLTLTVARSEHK
row,pKd,Binder
1,below the threshold,"ADEMICITTL [CACNA1D, Q01668]"
2,below the threshold,"NISARRFTLC [FAM167B, Q9BTA0]"

# Target: MAGI2_6, Q86UL8
# Assay: holdup assay
# Parameters: key: below the threshold = too weak to quantify, mostly under pKd 3.1 to 4
# Conditions: plain residues with an end cap or a label only (N-terminal biotin on a linker: ado-ado)
# Chain of MAGI2_6, Q86UL8 (Q86UL8 1141-1229): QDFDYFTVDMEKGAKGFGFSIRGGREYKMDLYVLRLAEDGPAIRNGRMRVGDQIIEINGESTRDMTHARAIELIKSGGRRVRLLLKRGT
row,pKd,Binder
1,4.85,"ADEMICITTL [CACNA1D, Q01668]"
2,below the threshold,"NISARRFTLC [FAM167B, Q9BTA0]"

# Target: Inadl_4, Q8NI35
# Assay: holdup assay
# Parameters: key: below the threshold = too weak to quantify, mostly under pKd 3.1 to 4
# Conditions: plain residues with an end cap or a label only (N-terminal biotin on a linker: ado-ado)
# Chain of Inadl_4, Q8NI35 (Q8NI35 547-651): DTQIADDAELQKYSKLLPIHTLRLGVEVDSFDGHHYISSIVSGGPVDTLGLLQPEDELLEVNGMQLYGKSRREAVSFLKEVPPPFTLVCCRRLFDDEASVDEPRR
row,pKd,Binder
1,below the threshold,"ADEMICITTL [CACNA1D, Q01668]"
2,below the threshold,"NISARRFTLC [FAM167B, Q9BTA0]"

# Target: MAGI2_5, Q86UL8
# Assay: holdup assay
# Parameters: key: below the threshold = too weak to quantify, mostly under pKd 3.1 to 4
# Conditions: plain residues with an end cap or a label only (N-terminal biotin on a linker: ado-ado)
# Chain of MAGI2_5, Q86UL8 (Q86UL8 915-1017): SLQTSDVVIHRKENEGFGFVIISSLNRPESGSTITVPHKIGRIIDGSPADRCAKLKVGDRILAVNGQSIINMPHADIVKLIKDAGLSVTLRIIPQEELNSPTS
row,pKd,Binder
1,4.76,"ADEMICITTL [CACNA1D, Q01668]"
2,4.26,"NISARRFTLC [FAM167B, Q9BTA0]"

# Target: T6, GRIP1_5, Q9Y3R0
# Assay: holdup assay
# Parameters: key: below the threshold = too weak to quantify, mostly under pKd 3.1 to 4
# Conditions: plain residues with an end cap or a label only (N-terminal biotin on a linker: ado-ado)
row,pKd,Binder
1,below the threshold,"ADEMICITTL [CACNA1D, Q01668]"
2,below the threshold,"NISARRFTLC [FAM167B, Q9BTA0]"

# Target: GRIP2_4, Q9C0E4
# Assay: holdup assay
# Parameters: key: below the threshold = too weak to quantify, mostly under pKd 3.1 to 4
# Conditions: plain residues with an end cap or a label only (N-terminal biotin on a linker: ado-ado)
# Chain of GRIP2_4, Q9C0E4 (Q9C0E4 446-548): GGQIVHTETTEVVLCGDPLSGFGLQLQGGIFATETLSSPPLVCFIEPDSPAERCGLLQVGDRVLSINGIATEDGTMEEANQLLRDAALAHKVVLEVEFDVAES
row,pKd,Binder
1,below the threshold,"ADEMICITTL [CACNA1D, Q01668]"
2,below the threshold,"NISARRFTLC [FAM167B, Q9BTA0]"

# Target: HTRA1, Q92743
# Assay: holdup assay
# Parameters: key: below the threshold = too weak to quantify, mostly under pKd 3.1 to 4
# Conditions: plain residues with an end cap or a label only (N-terminal biotin on a linker: ado-ado)
# Chain of HTRA1, Q92743 (Q92743 360-477): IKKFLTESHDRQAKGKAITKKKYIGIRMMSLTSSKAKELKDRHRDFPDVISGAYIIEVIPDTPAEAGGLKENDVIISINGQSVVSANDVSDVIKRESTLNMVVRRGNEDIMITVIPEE
row,pKd,Binder
1,5.79,"ADEMICITTL [CACNA1D, Q01668]"
2,4.47,"NISARRFTLC [FAM167B, Q9BTA0]"

# Target: DLG1_2, Q12959
# Assay: holdup assay
# Parameters: key: below the threshold = too weak to quantify, mostly under pKd 3.1 to 4
# Conditions: plain residues with an end cap or a label only (N-terminal biotin on a linker: ado-ado)
# Chain of DLG1_2, Q12959 (Q12959 314-412): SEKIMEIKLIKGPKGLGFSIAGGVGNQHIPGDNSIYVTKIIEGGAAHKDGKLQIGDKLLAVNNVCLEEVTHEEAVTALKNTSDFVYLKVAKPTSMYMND
row,pKd,Binder
1,4.06,"ADEMICITTL [CACNA1D, Q01668]"
2,3.92,"NISARRFTLC [FAM167B, Q9BTA0]"

# Target: T7, DLG3_1, Q92796
# Assay: holdup assay
# Parameters: key: below the threshold = too weak to quantify, mostly under pKd 3.1 to 4
# Conditions: plain residues with an end cap or a label only (N-terminal biotin on a linker: ado-ado)
row,pKd,Binder
1,3.56,"ADEMICITTL [CACNA1D, Q01668]"
2,3.98,"NISARRFTLC [FAM167B, Q9BTA0]"

# Target: T8, FRMPD1, Q5SYB0
# Assay: holdup assay
# Parameters: key: below the threshold = too weak to quantify, mostly under pKd 3.1 to 4
# Conditions: plain residues with an end cap or a label only (N-terminal biotin on a linker: ado-ado)
row,pKd,Binder
1,below the threshold,"ADEMICITTL [CACNA1D, Q01668]"
2,below the threshold,"NISARRFTLC [FAM167B, Q9BTA0]"

# Target: T9, DLG3_2, Q92796
# Assay: holdup assay
# Parameters: key: below the threshold = too weak to quantify, mostly under pKd 3.1 to 4
# Conditions: plain residues with an end cap or a label only (N-terminal biotin on a linker: ado-ado)
row,pKd,Binder
1,4.46,"ADEMICITTL [CACNA1D, Q01668]"
2,4.42,"NISARRFTLC [FAM167B, Q9BTA0]"

# Target: T10, TJP3_3, O95049
# Assay: holdup assay
# Parameters: key: below the threshold = too weak to quantify, mostly under pKd 3.1 to 4
# Conditions: plain residues with an end cap or a label only (N-terminal biotin on a linker: ado-ado)
row,pKd,Binder
1,below the threshold,"ADEMICITTL [CACNA1D, Q01668]"
2,below the threshold,"NISARRFTLC [FAM167B, Q9BTA0]"

# Target: T11, SNTB1, Q13884
# Assay: holdup assay
# Parameters: key: below the threshold = too weak to quantify, mostly under pKd 3.1 to 4
# Conditions: plain residues with an end cap or a label only (N-terminal biotin on a linker: ado-ado)
row,pKd,Binder
1,4.84,"ADEMICITTL [CACNA1D, Q01668]"
2,3.52,"NISARRFTLC [FAM167B, Q9BTA0]"

# Target: T12, SHANK1, Q9Y566
# Assay: holdup assay
# Parameters: key: below the threshold = too weak to quantify, mostly under pKd 3.1 to 4
# Conditions: plain residues with an end cap or a label only (N-terminal biotin on a linker: ado-ado)
row,pKd,Binder
1,5.28,"ADEMICITTL [CACNA1D, Q01668]"
2,below the threshold,"NISARRFTLC [FAM167B, Q9BTA0]"

# Target: SCRIB_2, Q14160
# Assay: holdup assay
# Parameters: key: below the threshold = too weak to quantify, mostly under pKd 3.1 to 4
# Conditions: plain residues with an end cap or a label only (N-terminal biotin on a linker: ado-ado)
# Chain of SCRIB_2, Q14160 (Q14160 857-960): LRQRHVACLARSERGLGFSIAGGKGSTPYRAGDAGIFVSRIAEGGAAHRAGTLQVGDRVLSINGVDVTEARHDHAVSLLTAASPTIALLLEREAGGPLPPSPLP
row,pKd,Binder
1,3.88,"ADEMICITTL [CACNA1D, Q01668]"
2,below the threshold,"NISARRFTLC [FAM167B, Q9BTA0]"

# Target: Inadl_6, Q8NI35
# Assay: holdup assay
# Parameters: key: below the threshold = too weak to quantify, mostly under pKd 3.1 to 4
# Conditions: plain residues with an end cap or a label only (N-terminal biotin on a linker: ado-ado)
# Chain of Inadl_6, Q8NI35 (Q8NI35 1058-1167): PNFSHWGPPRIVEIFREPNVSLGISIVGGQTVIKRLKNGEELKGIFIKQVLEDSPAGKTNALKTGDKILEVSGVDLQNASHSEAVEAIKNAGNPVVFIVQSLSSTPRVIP
row,pKd,Binder
1,4.62,"ADEMICITTL [CACNA1D, Q01668]"
2,below the threshold,"NISARRFTLC [FAM167B, Q9BTA0]"

# Target: MAST1, Q9Y2H9
# Assay: holdup assay
# Parameters: key: below the threshold = too weak to quantify, mostly under pKd 3.1 to 4
# Conditions: plain residues with an end cap or a label only (N-terminal biotin on a linker: ado-ado)
# Chain of MAST1, Q9Y2H9 (Q9Y2H9 962-1065): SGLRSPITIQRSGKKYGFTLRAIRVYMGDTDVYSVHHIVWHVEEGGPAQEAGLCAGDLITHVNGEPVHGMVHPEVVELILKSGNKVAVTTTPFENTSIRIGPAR
row,pKd,Binder
1,5.06,"ADEMICITTL [CACNA1D, Q01668]"
2,below the threshold,"NISARRFTLC [FAM167B, Q9BTA0]"

# Target: T13, APBA3_1, O96018
# Assay: holdup assay
# Parameters: key: below the threshold = too weak to quantify, mostly under pKd 3.1 to 4
# Conditions: plain residues with an end cap or a label only (N-terminal biotin on a linker: ado-ado)
row,pKd,Binder
1,below the threshold,"ADEMICITTL [CACNA1D, Q01668]"
2,below the threshold,"NISARRFTLC [FAM167B, Q9BTA0]"
